Drawing on patent US20250250357A1 (NANJING ZAIMING PHARMACEUTICAL, published 2025), this text covers OD450 for seven molecules.

Assay [1] concerns the target T1, human MSLN-R2-his protein (human, UniProt Q13421 391-486).
T1 construct: it is put last here; also called human MSLN-R2 protein; hMSLN-R2-his; not shown: His tag
The experiment in a line: ELISA on coated antigen, antibody 0.0002 nM. (ELISA stands for enzyme-linked immunosorbent assay.)

The target of assay [2] is T2, human MSLN-R3-his protein (human, UniProt Q13421 487-598).
T2 construct: it is put last here; also called human MSLN-R3 protein; hMSLN-R3-his; not shown: His tag
The experiment in a line: ELISA on coated antigen, antibody 2 nM.

The target of assay [3] is T1, human MSLN-R2-his protein. The experiment in a line: ELISA on coated antigen, antibody 20 nM.
Procedure: (§1) The plate was sealed with a plastic film and incubated at 4° C. overnight. The next day, the plate was washed twice with PBST, and a blocking buffer [PBS+2% (w/w) BSA] was added for blocking at room temperature for 2 h. The blocking buffer was discarded, and a chimeric antibody or negative control antibody serially diluted from 100 nM was added at 50 μL/well. After incubation at 37° C. for 2 h, the plate was washed 3 times with PBST. […] After incubation at 37° C. for 2 h, the plate was washed 5 times with PBST. A TMB substrate was added at 50 μL/well for incubation at room temperature for 5-10 min, and then a stop solution (1.0 N HCl) was added at 50 μL/well.
In assay [4] the target is T2, human MSLN-R3-his protein. The experiment in a line: ELISA on coated antigen, antibody 0.02 nM.
Procedure: as §1
The target of assay [5] is T1, human MSLN-R2-his protein. The experiment in a line: ELISA on coated antigen, antibody 2 nM.
Procedure: as §1
In assay [6] the target is T2, human MSLN-R3-his protein. The experiment in a line: ELISA on coated antigen, antibody 0.2 nM.
Procedure: as §1
Assay [7] has as its target T2, human MSLN-R3-his protein. Kind of assay: ELISA on coated antigen, antibody 0.0002 nM.
Procedure: as §1
For assay [8], the target named is T1, human MSLN-R2-his protein. Kind of assay: ELISA on coated antigen, antibody 0.002 nM.
Procedure: as §1
Assay [9] has as its target T1, human MSLN-R2-his protein. Kind of assay: ELISA on coated antigen, no antibody (blank, column 'none').
Procedure: as §1
The target in assay [10] is T1, human MSLN-R2-his protein. The experiment in a line: ELISA on coated antigen, antibody 200 nM.
Procedure: as §1
Assay [11] concerns the target T2, human MSLN-R3-his protein. The experiment in a line: ELISA on coated antigen, antibody 20 nM.
Procedure: as §1
Assay [12] has as its target T1, human MSLN-R2-his protein. Kind of assay: ELISA on coated antigen, antibody 0.2 nM.
Procedure: as §1
The target in assay [13] is T2, human MSLN-R3-his protein. The experiment in a line: ELISA on coated antigen, antibody 0.002 nM.
Procedure: as §1
Assay [14] has as its target T2, human MSLN-R3-his protein. Kind of assay: ELISA on coated antigen, no antibody (blank, column 'none').
Procedure: as §1
Assay [15] addresses T2, human MSLN-R3-his protein. Kind of assay: ELISA on coated antigen, antibody 200 nM.
Procedure: as §1
For assay [16], the target named is T1, human MSLN-R2-his protein. Kind of assay: ELISA on coated antigen, antibody 0.02 nM.
Procedure: as §1

T1 sequence (Q13421 other isoform, or with tags, fused parts or gaps): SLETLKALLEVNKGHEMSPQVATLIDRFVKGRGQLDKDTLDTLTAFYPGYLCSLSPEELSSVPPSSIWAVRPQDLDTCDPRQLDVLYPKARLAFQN
T2 sequence (Q13421 495-606): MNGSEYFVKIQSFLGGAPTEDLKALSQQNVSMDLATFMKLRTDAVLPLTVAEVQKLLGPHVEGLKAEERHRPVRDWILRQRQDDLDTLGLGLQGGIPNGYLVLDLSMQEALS

B1: S009-F7.11.11 (antibody, human IgG1, kappa, V domains shown)
VH: EVQLQQSGPELVKPGASVKIPCKASGYTITDYNMDWVKQSRGKSLEWIGDVFPYNGDSIYNQKFEGRATLTVDKYSSTAYMELRGLTSEDTAVYFCARRKTGTGYFDVWGTGTTVTVSS
VL: QLVLTQSPAIMSASPGEKVTLTCSASSSVSSTYLSWYLQKPGSSPKLWIYSTSNLASGVPARFSGSGSGTSYSLTISSMEAEDAASYFCHQWSSYPYTFGGGTKLEIKR
notes: Human-murine chimeric antibody, human IgG1 heavy and kappa light constant regions
In the case of B1, the OD450 turned out to be 0.05 OD in [1]; 2.41 OD in assay [2]; 0.06 OD in [3]; 0.32 OD in assay [4]; 0.05 OD in assay [5]; 1.37 OD in assay [6]. For the same molecule, the OD450 turned out to be 0.06 OD in assay [7]; 0.05 OD in assay [8]; 0.06 OD in assay [9]; 0.07 OD in assay [10]; 2.58 OD in [11]; 0.05 OD in [12]. Also, the OD450 in [13] was found to be 0.09 OD; in assay [14] it was 0.06 OD; in assay [15], 3.12 OD; in [16] it was 0.05 OD.

B2: S009-F7.12.13 (antibody, human IgG1, kappa, V domains shown)
VH: EVQLQQSGPELVKPGASVKIPCKASGYTFTDYNMDWVKQSHGKGLEWIGDINPNTDDTIYNQKFNGKATLTVDKSSSTAYMELRSLTSEDTAVYYCSRRLIGTGYFDVWGTGTTVTVSS
VL: QIVLTQSPAIMSASPGEKVTLTCSASSSVISTYLCWYRQKPGSSPELWIYSTSNLASGVPARFSGSGSGTSYSLTISSMEAEDAASYFCHQWSNYPYTFGGGTKLGMKR
notes: as for B1
With B2, the OD450 in assay [1] was found to be 0.05 OD; in assay [2] it was 2.48 OD; in assay [3], 0.06 OD; in assay [4], 0.36 OD; in assay [5], 0.05 OD; in [6], 1.67 OD. In addition, the OD450 was 0.06 OD in assay [7]; 0.05 OD in assay [8]; 0.06 OD in assay [9]; 0.08 OD in assay [10]; 2.67 OD in [11]; 0.05 OD in assay [12]. Besides, the OD450 in assay [13] is 0.15 OD; in assay [14], 0.06 OD; in assay [15], 2.96 OD; in assay [16] it was 0.05 OD.

B3: S009-F7.2.3 (antibody, human IgG1, kappa, V domains shown)
VH: ELQLVESGGDLVKPGGSLKLSCAASGFTFSSNGMSWLRQTPDKRLEWVATISSGGRYTYYPDSVKGRFTISRDNAKNTLYLQMSSLKSEDTAMYYCARRGIYDYFDCWGQGTTLTVSS
VL: DIQMTQSPASLSISVGETVTITCRASENIHSSLAWYQQKQGKSPQLLVYAATNLADGVPSRFSGSGSGSQYSLKINSLQSEDFGTYYCQHFWGTPWTFGGGTKLDIKR
notes: as for B1
Regarding B3, the OD450 in assay [1] was 0.14 OD; in [2], 0.07 OD; in assay [3] it was 2.38 OD; in [4], 0.06 OD; in assay [5] it was 2.37 OD; in [6] it was 0.06 OD. Further, the OD450 in [7] turned out to be 0.06 OD; in assay [8] it was 0.41 OD; in assay [9], 0.06 OD; in assay [10] it was 2.74 OD; in assay [11], 0.1 OD; in assay [12] it was 2.12 OD. The OD450 was determined as 0.06 OD in [13], 0.07 OD in [14], 0.2 OD in [15] and 1.22 OD in [16].

B4: S009-F7.6.17 (antibody, human IgG1, kappa, V domains shown)
VH: QVQLQQSGAELARPGASVKMSCKASGYTFTTYTMHWVKQRPGQGLEWIGYISPTGDFTKYNQKFKDKATLTTDKSSNTAFMQLSSLTSEDSAVYYCARWNGTVWFAYWGQGTLVTVSA
VL: DIVMTQSQKFMSTSVGDRVTVTCKASQALGTNVAWYQQKPGQSPKVLIYSASYRYSGVPYRFAGGGSGTDFTLTITNVQSEDLAEYFCQQYNNYPLTFGAGTKLELKR
notes: as for B1
For B4, the OD450 in assay [1] amounted to 0.05 OD; in assay [2], 2.86 OD; in assay [3], 0.07 OD; in [4], 1.55 OD; in assay [5], 0.05 OD; in [6] it was 2.64 OD. Moreover, the OD450 in assay [7] came out at 0.13 OD; in [8], 0.05 OD; in assay [9], 0.06 OD; in assay [10], 0.13 OD; in assay [11], 2.81 OD; in assay [12], 0.05 OD. The OD450 in assay [13] was determined as 0.56 OD; in [14] it was 0.08 OD; in [15], 3.1 OD; in assay [16], 0.05 OD.

B5: S009-F7.23.19 (antibody, human IgG1, kappa, V domains shown)
VH: EVKLVESGGGLVQPGGSLSLSCAASGFTFTDYYMSWVRQPPGKALEWLGFIRSKANAYTTEYSASVKGRFTISRDNSQSILYLQMNDLRAEDSATYYCARYYYYGSGYVWYFDVWGTGTTVTVSS
VL: DIVMTQSQKFMSTSVGDRVSVTCKASQSVGTNVAWYQQKPGQFPKALIYSASYRYSGVPDRFTGSGSGTDFTLTIINVQSEDLAEYFCQQYNSYPLTFGAGTKLELKR
notes: as for B1
B5: the OD450 in [1] was 0.14 OD; in assay [2], 2.52 OD; in [3], 0.05 OD; in [4], 0.88 OD; in assay [5] it was 0.05 OD; in assay [6], 1.9 OD. Further, the OD450 in assay [7] stood at 0.08 OD; in [8] it was 0.05 OD; in [9], 0.06 OD; in [10] it was 0.09 OD; in [11], 2.63 OD; in [12], 0.05 OD. The OD450 in [13] is 0.25 OD; in assay [14], 0.09 OD; in assay [15] it was 2.77 OD; in assay [16], 0.05 OD.

B6: S009-F7.18.10 (antibody, human IgG1, kappa, V domains shown)
VH: QVQLQQSGAELVRPGTSVKVSCKASGYAFTNYLIEWVKQRPGQGLEWIGVINPGSGGTKYNEKFKGKATLTADKSSSTAYMQLSSLTSEDSAVYFCASDYDYDPFAYWGQGTLVTVSA
VL: DIVMTQSHKFMSTSVGDRVSITCKASQDVSTAVAWYQRKPGQSPKLLIYWASTRHTGVPDRFTGSGSGTDYTLTISYMQAEDLALYYCQQHYSTPYTFGGGTKLEIKR
notes: as for B1
Turning to B6, the OD450 in [1] is 0.05 OD; in assay [2] it was 0.07 OD; in assay [3], 0.09 OD; in assay [4], 0.05 OD; in assay [5], 0.09 OD; in assay [6], 0.06 OD. The OD450 in assay [7] is 0.05 OD; in [8] it was 0.05 OD; in [9] it was 0.06 OD; in assay [10], 0.14 OD; in assay [11] it was 0.14 OD; in [12] it was 0.06 OD. The OD450 amounted to 0.05 OD in [13], 0.07 OD in assay [14], 0.29 OD in assay [15] and 0.05 OD in assay [16].

B7: S009-F7.25.19 (antibody, human IgG1, kappa, V domains shown)
VH: QVQLQQPGTELVKPGASVKLSCKASGYTFTSYWMHWVKQRPGQGLEWIGNIIPSNGGTKYNEKFKSKATLTVDKSSSTAYMQLSSLTSEDSAVYYCSPHYYGGSPGFAYWGQGTLITVSA
VL: DIVMTQSQKFMSTSVGDRVSVICKASQNVGTNVAWYQQKPGQSPKALIYSASYRYSGVPDRFTGSGSGTDFTLTISNVQSEDLAEYFCQQYNSYPLTFGGGTKLEIKR
notes: as for B1
As for B7, the OD450 in [1] was determined as 0.05 OD; in assay [2], 2.76 OD; in assay [3] it was 0.09 OD; in assay [4], 1.81 OD; in [5], 0.06 OD; in assay [6], 2.6 OD. Moreover, the OD450 in assay [7] came out at 0.3 OD; in [8] it was 0.05 OD; in assay [9], 0.06 OD; in assay [10], 0.31 OD; in assay [11], 2.71 OD; in assay [12], 0.05 OD. Also, the OD450 in assay [13] worked out at 0.9 OD; in assay [14], 0.07 OD; in assay [15], 2.83 OD; in assay [16] it was 0.05 OD.
